Measured values: US20140105900A1 (Amgen, published 2014)

B1: 30G3 (antibody, V domains shown)
VH: QVQLQESGPGLVKPSETLSLTCTVSGGSISSYYWSWIRQPAGKGLEWIGRIYTSGSTYFNPSLKSRVTMSVDTSKNQFSLKLSSVTAADTAVYYCARGRELLDYWGQGTLVTVSS
VL: EVVLTQSPGTLSLSPGERATLSCRASQSFSSSYLAWYQQKPGQAPRLLIFGASSRATGIPDRFSGSGSGTDFTLTINRLEPEDFALYYCQQYGRSPLTFGGGTKVEIKR
notes: Fully human antibody from XenoMouse; also called anti-IL-21 receptor antibody 30G3; IL-21R mAb 30G3
B2: 29G8 (antibody, V domains shown)
VH: QVQLVESGGGVVQPGRSLRLSCAASGFTFSSYGMHWVRQAPGKGLEWVAVIWYDGSNKYYVDSVKGRFTISRDNSKNTLYLQMNSLRAEDTAVYYCARDRGYYDSGSYYMDYWGQGSLVTVSS
VL: DIQMTQSPSSVSASVGDRVTITCRASQGISTWLAWYQQKPGKAPKLLIYAASILQRGVPSRFSGSGSGTDFTLTISSLQPEDFTTYYCQQANSFPRTFGQGTKVEIKR
notes: Fully human antibody from XenoMouse, subcloned as a full IgG construct; also called anti-IL-21 receptor antibody 29G8; IL-21R mAb 29G8
B3: 34H7 (antibody, V domains shown)
VH: EVQLVQSGAELKKPGESLKISCKGSGYRFTSYWIGWVRQMPGKGLEWMGIIYPGDSDTRYSPSFQGQVTISADKSISTAYLQWHSLKVSDTAMYYCASPGYSTRWYHFDYWGQGTLVTVSS
VL: EIVMTQSPATLSVSPGERATLSCRASQSISSSLVWYQQKPGQAPRLLIYGASTRATGIPARFSGSGSGTEFSLTISSLQSEDFAVYYCQQYNNWPLLTFGPGTKVDIKR
notes: Fully human antibody from XenoMouse, subcloned as a full IgG construct; also called anti-IL-21 receptor antibody 34H7; IL-21R mAb 34H7

Tests used:
[1] = molecular target: T1, human IL-21 receptor on cells (human, UniProt Q9HBE5 20-538); assay: cell-based or functional assay
[2] = molecular target: cynomolgus IL-21 receptor on cells (cynomolgus monkey, UniProt G7Q0S8 41-559); assay: cell-based or functional assay
[3] = molecular target: T2, recombinant cynomolgus IL-21 receptor (cynomolgus monkey, UniProt G7Q0S8 41-253); assay: Biacore, recombinant cyno IL-21R
T2 construct: construct not described; also called cyno IL-21R

[4] = molecular target: T3, recombinant human IL-21 receptor (human, UniProt Q9HBE5 20-232); assay: KinExA, recombinant human IL-21R
T3 construct: Used in Biacore and KinExA ('recombinant IL-21R', column 'hu'); also called recombinant IL-21R; hu IL-21R

[5] = molecular target: T3, recombinant human IL-21 receptor; assay: Biacore, recombinant human IL-21R
[6] = molecular target: T1, human IL-21 receptor on cells; assay: flow cytometry on Ramos cells, antibody titration, anti-huIgG detection
Protocol: Assay protocols ¹B/T co-culture. Mitomicin C-treated human T cells were cultured with B cells in anti-CD3 antibody pre-coated 96-well plates as described in Kuchen et al. (2007) J Immunol 179: 5886, incorporated herein by reference in its entirety. Supernatants were collected for IgA ELISA on day 6. ²B cell IgA production. Negatively selected human peripheral blood B cells were cultured in vitro with IL-21 and CD40L. On day 6, supernatants were collected for human IgG ELISA analysis. ³CD8 IFN-γ production. Purified human CD8 T cells were cultured with IL-21. IFN-γ was measured in the supernatant on day 3. ⁴Whole blood pSTAT3 stimulation. Human or cynomolgus monkey whole blood was pre-incubated with IL-21R mAbs titrations at 37° C. for 1 hr and stimulated with IL-21. Cells were fixed, permeabilized and stained for pSTAT3 and cell surface markers. ⁵Cell based KD measurement. Ramos cells (Human Burkitt's lymphoma) were incubated with a titration of IL-21R mAbs and bound antibody was detected with anti-huIgG by flow cytometry.

T3 sequence (Q9HBE5 20-232 limits assumed): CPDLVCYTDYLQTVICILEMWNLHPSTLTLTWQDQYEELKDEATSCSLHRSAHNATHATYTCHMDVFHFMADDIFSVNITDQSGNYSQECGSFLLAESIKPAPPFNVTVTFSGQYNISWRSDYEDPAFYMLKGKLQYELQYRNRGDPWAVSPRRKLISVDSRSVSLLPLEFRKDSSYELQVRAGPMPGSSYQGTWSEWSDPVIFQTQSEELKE
T1 sequence (Q9HBE5 20-538 limits assumed): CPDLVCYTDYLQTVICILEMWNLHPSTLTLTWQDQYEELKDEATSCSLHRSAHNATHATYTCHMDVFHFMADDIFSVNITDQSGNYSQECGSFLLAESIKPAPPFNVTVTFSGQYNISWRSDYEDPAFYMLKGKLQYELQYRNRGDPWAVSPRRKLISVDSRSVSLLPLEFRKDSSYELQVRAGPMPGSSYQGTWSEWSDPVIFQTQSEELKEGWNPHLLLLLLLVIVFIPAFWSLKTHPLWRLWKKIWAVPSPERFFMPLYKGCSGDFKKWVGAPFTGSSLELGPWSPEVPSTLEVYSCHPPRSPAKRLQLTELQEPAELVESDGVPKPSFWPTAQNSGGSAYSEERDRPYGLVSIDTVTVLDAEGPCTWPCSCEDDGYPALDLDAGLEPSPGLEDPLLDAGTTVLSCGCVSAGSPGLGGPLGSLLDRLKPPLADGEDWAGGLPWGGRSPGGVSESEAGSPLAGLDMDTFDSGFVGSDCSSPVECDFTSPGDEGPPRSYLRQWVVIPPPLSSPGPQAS

Row | Binder | B cell (IgA) IC-50, exp1 [1] | B cell (IgA) IC-50, exp2 [1] | B/T co-culture (IgA) IC-50, exp1 [1] | B/T co-culture (IgA) IC-50, exp2 [1] | B/T co-culture (IgA) IC-50, exp3 [1] | B/T co-culture (IgA) IC-50, exp4 [1] | B/T co-culture (IgA) IC-50, exp5 [1] | CD8 T (IFNγ) IC-50, exp1 [1] | CD8 T (IFNγ) IC-50, exp2 [1] | hu pSTAT3 IC-50, B [1] | hu pSTAT3 IC-50, T [1] | cyno pSTAT3 IC-50, B [2] | cyno pSTAT3 IC-50, T [2] | Kd [3] | Kd [4] | Kd [5] | Kd [6]
1 | B1 | 58 pM | 31 pM | 44 pM | 31 pM | 24 pM | 24 pM | 19 pM | 203 pM | 35 pM | 36 pM | 10 pM | 9 pM | 33 pM | 0.078 nM | 0.015 nM | 0.016 nM | 0.033 nM
2 | B2 | 22 pM | 47 pM | 29 pM | 8 pM | 17 pM | 17 pM | 14 pM | 139 pM | 48 pM | 137 pM | 33 pM | 65 pM | 286 pM | 0.166 nM | 0.026 nM | 0.078 nM | 0.016 nM
3 | B3 | 18 pM | 49 pM | 16 pM | 9 pM | 11 pM | 17 pM | 10 pM | 79 pM | 27 pM | 14 pM | 8 pM | 4 pM | 13 pM | 0.043 nM | 0.006 nM | 0.035 nM | 0.015 nM
